Key:
[1] = target: TEV-cleaved ICP35 (White spot syndrome virus); test: SDS-PAGE without boiling; purified protein loaded on 12% SDS-PAGE with and without boiling, Coomassie stain and Western blot; TEV-cleaved ICP35 concentrated to 10 mg/ml to induce oligomerization
[2] = target: TEV-cleaved ICP35 (White spot syndrome virus); test: SEC; HiLoad 16/600 Superdex 200; 20 mM Tris-HCl pH 8.0, 200 mM NaCl, 5 mM MgSO4; peak fractions checked by SDS-PAGE

TEV-cleaved ICP35 (domain or fragment)
stoichiometry N [1]: 2 | stoichiometry N [2]: 2

From publication PMC4922627
